In paper PMC7545189, “Structural characterization of the ICOS/ICOS-L immune complex reveals high molecular mimicry by therapeutic antibodies” (Nature Communications, 2020):
Each block holds one binder with its values, some of them ahead of it.

Columns and labels:
[1] = target: T1, human ICOS-L ectodomain (residues 19-248), His-tagged, immobilised on Ni-NTA biosensors (human, UniProt O75144 19-248); experiment: BLI; His-tagged ICOS-L on Ni-NTA biosensors (0.8 nm), untagged ICOS (wild-type and mutants) as analyte, 1:2 serial dilutions from 125 nM; PBS pH 7.4, 0.01% BSA, 0.002% Tween; 1:1 fit; apparent constant (avidity of the ICOS homodimer); settings: both partners purified
T1 construct: also called ICOS ligand; CD275; source: HEK 293F, transiently transfected, purified from the supernatant (HisTrap Ni-NTA); not shown: His6, C-terminal, kept
T1 sequence (looked up): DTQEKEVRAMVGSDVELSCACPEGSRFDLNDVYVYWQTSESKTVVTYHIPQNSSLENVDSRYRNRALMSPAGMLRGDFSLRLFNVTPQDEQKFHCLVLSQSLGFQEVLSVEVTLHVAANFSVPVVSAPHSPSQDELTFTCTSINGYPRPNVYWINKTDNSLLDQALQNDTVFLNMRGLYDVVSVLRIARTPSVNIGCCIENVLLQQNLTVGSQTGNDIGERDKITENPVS

[2] = target: T2, human ICOS ectodomain N110Q, His-tagged, immobilised for STIM003 binding (human, UniProt Q9Y6W8 21-138, N110Q); experiment: BLI
T2 sequence: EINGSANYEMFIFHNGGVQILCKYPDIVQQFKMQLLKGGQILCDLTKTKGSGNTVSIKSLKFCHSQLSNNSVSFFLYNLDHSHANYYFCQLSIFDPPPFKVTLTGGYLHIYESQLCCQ

[3] = target: T3, human ICOS ectodomain (residues 21-138), His-tagged, immobilised on Ni-NTA biosensors (human, UniProt Q9Y6W8 21-138); experiment: BLI
T3 chain: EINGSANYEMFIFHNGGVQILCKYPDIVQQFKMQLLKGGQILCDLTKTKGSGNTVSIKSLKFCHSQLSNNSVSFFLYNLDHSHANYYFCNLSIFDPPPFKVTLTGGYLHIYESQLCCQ

[4] = target: T2, human ICOS ectodomain N110Q, …; experiment: BLI; remark: listed apart in the source
[5] = target: T3, human ICOS ectodomain (residues …); experiment: BLI
[6] = target: T4, human ICOS ectodomain (residues 21-138), His-tagged, immobilised on Ni-NTA biosensors (human, UniProt Q9Y6W8); experiment: BLI; His-tagged ICOS or ICOS-L on Ni-NTA biosensors, Fabs as analytes (prezalumab 1:2 serial dilutions from 31 nM); PBS pH 7.4, 0.01% BSA, 0.002% Tween; 1:1 fit; settings: both partners purified
T4 construct: human ICOS ectodomain, UniProtKB Q9Y6W8, residues 21-138, followed by a TEV cleavage site; The His6 tag of the vector lies C-terminal of TEV site and Venus, so the His-tagged form used for loading is probably the undigested ICOS-TEV-Venus-His6 fusion; also called inducible T-cell co-stimulator; CD278; source: HEK 293F, transiently transfected, purified from the supernatant (HisTrap Ni-NTA); not …

[7] = target: T5, human ICOS C136A C137A N23Q (residues 21-138), crystallised with STIM003 Fab (human, UniProt Q9Y6W8, C136A | C137A | N23Q); experiment: crystal structure; ICOS C136A C137A N23Q/STIM003 Fab complex, co-expressed and co-purified, then incubated 1:5 with anti-kappa VHH and gel filtered, 2.38 A; 0.2 M di-sodium hydrogen phosphate, 20% PEG 3350; settings: both partners purified
T5 construct: human ICOS ectodomain, UniProtKB Q9Y6W8, residues 21-138 with C136A, C137A and N23Q; not shown: Venus (monomeric variant), C-terminal, cleaved; His6, C-terminal, cleaved

[8] = target: T6, human ICOS ectodomain N110Q (N110 glycan knock-out mutant), analyte (human, UniProt Q9Y6W8 21-138, N110Q); experiment: BLI
T6 sequence: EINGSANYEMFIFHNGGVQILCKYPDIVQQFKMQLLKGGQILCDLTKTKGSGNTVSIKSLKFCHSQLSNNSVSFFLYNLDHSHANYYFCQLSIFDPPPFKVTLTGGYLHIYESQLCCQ

[9] = target: T6, human ICOS ectodomain N110Q (N110 …); experiment: BLI; remark: listed apart in the source
[10] = target: T7, human ICOS ectodomain (residues 21-138), untagged, disulfide-linked homodimer (human, UniProt Q9Y6W8 21-138); experiment: BLI; ICOS-L immobilized
T7 chain: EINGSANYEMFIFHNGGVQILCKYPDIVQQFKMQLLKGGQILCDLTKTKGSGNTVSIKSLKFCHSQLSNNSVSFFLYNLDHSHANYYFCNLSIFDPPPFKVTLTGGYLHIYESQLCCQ

[11] = target: T7, human ICOS ectodomain (residues …); experiment: BLI; ICOS-L immobilized

T5 sequence (Q9Y6W8 21-138 N23Q/C136A/C137A): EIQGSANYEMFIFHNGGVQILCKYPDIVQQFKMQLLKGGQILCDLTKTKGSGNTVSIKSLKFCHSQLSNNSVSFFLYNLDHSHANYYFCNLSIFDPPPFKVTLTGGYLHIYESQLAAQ

B1: human ICOS ectodomain (residues 21-138), untagged, disulfide-linked homodimer (receptor, UniProt Q9Y6W8 21-138, looked up)
chain: EINGSANYEMFIFHNGGVQILCKYPDIVQQFKMQLLKGGQILCDLTKTKGSGNTVSIKSLKFCHSQLSNNSVSFFLYNLDHSHANYYFCNLSIFDPPPFKVTLTGGYLHIYESQLCCQ
notes: human ICOS ectodomain, UniProtKB Q9Y6W8, residues 21-138; Residues of the TEV site probably remain at the C-terminus after cleavage; also called ICOS WT; ICOS disulfide-linked homodimers; source: HEK 293F, transiently transfected, purified (HisTrap Ni-NTA, TEV digestion, second Ni-NTA, Superdex 200); not shown: Venus (monomeric variant), C-terminal, cleaved; His6, C-terminal, cleaved
Kd [1]: 10 nM

B2: human ICOS ectodomain N110Q (N110 glycan knock-out mutant), analyte (receptor, UniProt Q9Y6W8 21-138, looked up)
chain: EINGSANYEMFIFHNGGVQILCKYPDIVQQFKMQLLKGGQILCDLTKTKGSGNTVSIKSLKFCHSQLSNNSVSFFLYNLDHSHANYYFCQLSIFDPPPFKVTLTGGYLHIYESQLCCQ
notes: human ICOS ectodomain, UniProtKB Q9Y6W8, N110Q removes the N-linked glycosylation site; limits are those of the ectodomain construct of the methods; also called ICOS N110Q; ICOS N110 glycan knock-out mutant; source: HEK 293F, transiently transfected, purified (as the ICOS ectodomain); not shown: Venus (monomeric variant), C-terminal, cleaved; His6, C-terminal, cleaved
fold improvement in binding affinity against WT ICOS [1]: 4.3 fold

B3: STIM003 Fab (purified, for BLI) (Fab, V domains shown)
VH: EVQLVESGGGVVRPGGSLRLSCVASGVTFDDYGMSWVRQAPGKGLEWVSGINWNGGDTDYSDSVKGRFTISRDNAKNSLYLQMNSLRAEDTALYYCARDFYGSGSYYHVPFDYWGQGILVTVSS
VL: EIVLTQSPGTLSLSPGERATLSCRASQSVSRSYLAWYQQKRGQAPRLLIYGASSRATGIPDRFSGDGSGTDFTLSISRLEPEDFAVYYCHQYDMSPFTFGPGTKVDIK
notes: Fab heavy chain of STIM003; Fab light chain (kappa) of STIM003; Kappa light chain (KappaSelect purification); also called anti-ICOS monoclonal antibody; source: HEK 293F, transiently co-transfected LC and HC, purified (KappaSelect, MonoS, Superdex 200)
koff [2]: 0.001 s⁻¹ | koff [3]: 0.00072 s⁻¹ | Kd [4]: 1.8 nM | Kd [5]: 2 nM | binding result [6]: binds

Other lines, results leading:

binding result [7]: binds
B4: STIM003 Fab (co-expressed with ICOS, for the crystal structure) (Fab, V domains shown)
VH: EVQLVESGGGVVRPGGSLRLSCVASGVTFDDYGMSWVRQAPGKGLEWVSGINWNGGDTDYSDSVKGRFTISRDNAKNSLYLQMNSLRAEDTALYYCARDFYGSGSYYHVPFDYWGQGILVTVSS
VL: EIVLTQSPGTLSLSPGERATLSCRASQSVSRSYLAWYQQKRGQAPRLLIYGASSRATGIPDRFSGDGSGTDFTLSISRLEPEDFAVYYCHQYDMSPFTFGPGTKVDIK
notes: as the heavy chain of m12; as the light chain (kappa) of m12; source: HEK 293S (Gnt I-/-), co-transfected with ICOS C136A C137A N23Q, complex purified

koff [8]: 0.00071 s⁻¹ | Kd [9]: 0.7 nM | koff [10]: 0.0012 s⁻¹ | Kd [11]: 3 nM
B5: human ICOS-L ectodomain (residues 19-248), His-tagged, immobilised on Ni-NTA biosensors (ligand)
chain: DTQEKEVRAMVGSDVELSCACPEGSRFDLNDVYVYWQTSESKTVVTYHIPQNSSLENVDSRYRNRALMSPAGMLRGDFSLRLFNVTPQDEQKFHCLVLSQSLGFQEVLSVEVTLHVAANFSVPVVSAPHSPSQDELTFTCTSINGYPRPNVYWINKTDNSLLDQALQNDTVFLNMRGLYDVVSVLRIARTPSVNIGCCIENVLLQQNLTVGSQTGNDIGERDKITENPVS
